The values below come from paper PMC4497506 (Journal of medicinal chemistry, 2015).

The target in the experiment is wild-type HIV-1 YU-2 Env gp120, soluble monomeric (HIV-1 YU-2, UniProt P35961).

Usually Kd stands for a measure of binding affinity in units of concentration. Low readings indicate higher affinity, high ones lower affinity.

B1: mAb F105 (antibody, V domains shown)
VH: QVQLQESGPGLVKPSETLSLTCTVSGGSISSHYWSWIRQSPGKGLQWIGYIYYSGSTNYSPSLKSRVTISVETAKNQFSLKLTSMTAADTAVYYCARGPVPAVFYGDYRLDPWGQGTLVTVSS
VL: EIVLTQSPGTLSLSAGERATLSCRASQSVSSRYLAWYQQKPGQAPRLLIYGASSRATGIPDRFSGSGSGTDFTLTISRVEPEDFAVYYCQQYDNSVCTFGQGTKLEIK
Molecule B1 came in with a Kd of 24 nM.
